For this series, the system named is thebaine. As to the kind of experiment: Demethylation of thebaine by new cytochrome P450 fungal and plant homologs co-expressed with CPRs in S. cerevisiae. The following applies: 0.5 mM thebaine, SC or DELFT media pH 7, 72 h, 30° C.; co-expressed with Cel_CPR_co, Tp_CPR_5866, Tp_CPR_DN10898 or POR1.

B1: CYPDN13: cytochrome P450 homolog A0A1X2HZE4 from Absidia repens, codon-optimized (protein, listed as Absidia repens)
chain: MGTSYKRKAAYVTIGAAVVLLFRSIYGFYYVPKSLRHLPCVGYRELAYSIMKREDAATRARSVLGQAIKEKNGAFVAKFPMEWTVFLTSPRTIQAVLLKSDKFPKTYDMFHALGESSPFVKFLGIKNVGFSNGDDWKRQRKVMNPAFQRSVPVEMFGKLMQKGILAIEKQGYEVRALDFFERITLDSIGIFLFSFDFGSLDNPNSVWSLTYDTIRRGIKNPALTVFPQLDCLLKYVTPGRRHLDQCVTKLNNLLMEVAKEKRRQVQSPSDKLIPDSEKDLLTLILEAELRGDGSASDEELRGNLALFFLAGHETTASAMCFCLYNLAMNKDIQEKARKEVLEVLGDEPVDVRPDIQDLKQFRYMDMILHENLRRFGPAAMLLPRKSEEDFVADGILIPKNTPVVIDLNTMHHNPQVWKDPEIFDPERFAPGGEYEANGEKMAWLPFSSGSRVCIGKSFSMAEQRVFLSMLLKKYEWDFPDDSIHRDGIKMENFENNAPESLSFRFHPRY
Consider B1, for which the Northebaine production entry is recorded as “+”.

B2: CYPDN16: cytochrome P450 homolog A0A1X2HFU1 from Syncephalastrum racemosum, codon-optimized (protein, listed as Syncephalastrum racemosum)
chain: MTQLTTPDTLGKLLAIYRQTPASRRASWIGWAVAATVIASQLYKTLVPPSNLPNLPTINYFRLLSSFLRRDSPTIRSQEILIPALEKHEQKKAYLAKLPLTWTVFLVDPIAAKIFLMKMDIFPKIKETIDALDSQHPIVEFFGRENVAISVGEAWRNQRKVMNPAFRRAMPISIFGNLMFKVFKNIEENKPVIAIDLMQAFTLDALGRAAFSFDFHALDDQHSIWVETYEIIRQSLRNPANAVLARYNFITKYLMPGRAKQKAATHKLNSLLLEMASRKRAELEKHPELRELPDSEKDLLTLMVEADMESGDDPTSAELLRANLSVFFLAGHDTTANTLSFWLYHMAVNKDVQAKAREEVIKILGDGPEDVMPTADQCKQMTYLDCIIKENLRLLGPASQLIPRMATEDVDLNGIFIPKGTRVTVDMHTMHYSPMLWKDPGVFKPDRFLDEGEHSQHRGLAWLPFSSGGRQCLGMNFSLTEQRVVMSMMLRKYTWELPADSIHRDGVKLNEVNTVAPRTLSIIFQQRYH
As for B2, the Northebaine production entry is “+”.

B3: CYPDN12: cytochrome P450 homolog A0A1C7N669 from Choanephora cucurbitarum, codon-optimized (protein, listed as Choanephora cucurbitarum)
chain: MFTETALQIYHQMAEKVLPILKRQPKSSYIGAALVFLLVAEIRRQLSVPKHLKKFPTIGVFTLMKSFMRNDSVIERHNRLVAPIVKQGHKFYAAKIPFDWSLSIVDPEIAKIMLMKSDAFPKSQGFTRKLGDSSLIVRFTGRDNVSISNGHVWKRQRKFMNPAFRRSTPIKTFGELTLKFFDCVDEQPQDFPAAIKLKNYTLDALGIAAFDFDFKSLSGDPEGWTEIYNVIMKGMFDPWVFLFGKMEFILQYIIPSKRECIKSVVKFNKMLVEMADKRRQEIQNGKKLNTPNSEKDLLTLMIEAEMEEGIMTTNEELRENIALFFLAGQDSTGNSLSFCLYHLAKNKHVQDKLRREIMSVMGDRDLDAIPTVEDFKDMPYLNMVIKENLRLSGPADRFLDRVVAEDIVLGGELIPKGTLITVDVASIHYNPEYWHDPEVFIPERFEPNGEFDQHAGVAWLPFSNGARQCIGMNFSLAEQRVFLTMLLRRYEVGISKDSIHYDSIVYEQSFTFAPSSLTLNFTKLN
Regarding B3, the Northebaine production entry was “+”.

B4: CYPDN11: cytochrome P450 homolog A0A068SB73 from Lichtheimia corymbifera, codon-optimized (protein, listed as Lichtheimia corymbifera)
chain: MAVASPQIKNMVTMDRLQDIYSTVSQHVVAHASAVTSRQRKISISAAVALVAFYTVYKVVTPPANLRHIPSMGFFSYLNAFLRGKQLHDISKNVVLPHAVNVDNGVYLRFDILGWTVHIARPEAAKRFLLKSDIFPKADMISERGNTLFGKFVFNRNIVMLNGDDWKAQRKVANPAFHRAMPVELFGRLTQKTLKKMEEEMDGGTLNFHDITERYTLEVIGLAGFEFEFGAIENPKSEWVDRYQRLIEATFNPWFIAFPNLDMRYRFLFPSRKRLHREMDAFLDKMSQVITHKRELLNHQKTTVPESERDILTLMIEAEKNGEGSMTNEELQNNLLVFFIAGHDTTSLALSYAAYYLAVNPDVQRKAREEAIRVLGDAPEDVMPTVEQTRQLTYINMVIKETLRMSPPLATIPVREASEDTELCGTFIPKGTRTFLDIYEIQHNPTVWKDPETFKPERFKPGGEAEELAGSGMSWLPFSNGSRQCIGLNFSLVEQRVFLPMLLRKYEWHLPEDSIHKERIQTMGLAVIKPKDLKLTFKKRY
With B4, the Northebaine production result was “+”.

B5: CYPDN14: cytochrome P450 homolog A0A168T1R5 from Absidia glauca, codon-optimized (protein, listed as Absidia glauca)
chain: MPIVNALQTYSYEEPINFLKDVWLNRLFPAGTSNRKKAALLTLGATIALVCRTVYRLYRVPRSLRHIPAVGYVAMLRSILKREDATTRAMTIFQPAMKKGNGVFLVNFPLEWSIYVAEPLAAKAVLMKSDNFPKSIDFIHALGKENPVVKFFGTDNVALVNGEQWKRQRKVMNPAFHRAMPVQMFGRLLQKGFKNIEEQGHQVAALDFFQRLTLDALGHAVFGFDFGALNDREAVWTVTYESIRLNLRNPLAFAFPSMDWLLKYVIPGRLQMAASVDKLNGLMMDMIKEKRIKLLESQAQDDTPENEKDLLTLMLEAEQRGEGTTNDEELRSNMAVFFLAGHETTANTMSFCLYNLAMDKSVQEKARQEVIKVLGDEPEDVLPRNEELRQIPYLDMILKENLRRFGPASMLNARKTVEDFDMNGTFIPKNTSVIVETNALHHNPEVWKNPEQFDPERFAPGGEHETSHEGMAWLPFSSGSRGCLGMNFSMAEQRVFLAMLLRKYEWDLPKDSIHKNGIQIGNFQNACPDSLKIQFTPRY
Take B5: the Northebaine production entry is given as “+”.

B6: CYPDN10: cytochrome P450 homolog A0A0B7NB52 from Parasitella parasitica, codon-optimized (protein, listed as Parasitella parasitica)
chain: MAIENFMQSYNRAIENVLPILRKRSKASYIGMAIMCIVIKQVYSAYSVPKHLQRFPKVSFLSMIRSYLIKEAVVERTKRLVTPLTDAGHGFYVCKIPLTWTVFVTDPIAAKTLLLKTEFFPKSHAFFDALGDNSPAVQFLGRENVAASNGEIWKKQRKFMNPAFLRSSPVKTFSSVTHNLIKVIETQSDAVPIANCMKAFTIDALGLSAFGFDFQSLNGDPEGWTETYNIAIAGLFDPFINIFVKVDFMMNYISSKRKRINKAITRFNSMLEDLANKRRQEILNGETLGVPENEKDLLTLMIEADIREGSRTTSTELRHNIALFFLAGHDTTAHTLAFCLYNLAKNKHVQAKARAEVLDILGDEPKDVDPTMEDLKRMDYLNMVIKENLRRCGPVDKLLSRDTAEDIDLNGTLIPKGQKISIDFNSIHMNPKLWHNPEEFVPERFEPGGEFDQHTGFTWLPFSHGSRQCIGMNFSLTEQKVLLSMICKRAIEEI
For the molecule B6, the Northebaine production result is “+”.

B7: CYPDN18: cytochrome P450 homolog A0A0C9MNJ6 from Mucor ambiguus, codon-optimized (protein, listed as Mucor ambiguus)
chain: MYSTASYNQTLERVVSVVRKNKTSYIGMAILCVVLQQIYSSFAVPPKHLRRFPKVSFMELMKSFYKKESVMNRNKRLVTPLTNAGHGFYISRIPLDWTIYVTDPIAAKTLLLKTDNFPKSHAIFGALGESSPVVKFMGNENVAVSNDILWRKQRKIMNPAFHRSQPVKVFGGVMPDLFALIDQDPEHVFITPKIKSFALDALGLSAFGFDFQSLKNDPEGWTSKYNTVVSSLFNPFVNLFAKCDFLIKYISAERRRVIKVTDEFNAMLSNLADKRRQEIMNGEKKNIAENEKDLLTLMIEADTREGVETTTTELRHNMAIFFLAGHDTTANTLALCLYQLAKHKHVQKKARQEVLDILGDDPWDVAPSLEDLKKLNYLNMVIKENLRRNGPVDNLMSRDTQQDINLNGTFIPKGSKVVINVASIHLNPKIWHNPESFIPERFEQGGEFDSHDGFTWLPFSNGSRQCLGLNFSLTEQRVALCMLLKRYEIDIPKDSIHYDEIVFDKAFTFAPQSLELSFKKRY
For the molecule B7, the Northebaine production entry was “+”.

The values above are taken from patent publication US11781164B2, “Demethylation of reticuline and derivatives thereof with fungal cytochrome P450” (priority 2017, dated 2023).
